# Assay results published in paper PMC2268108.
# Columns and labels:
# [1] = target: canine kidney Na,K-ATPase (αβ protomer), erythrosin-labelled (dog (endogenous in kidney)) (UniProt P50997); assay: time-resolved phosphorescence anisotropy
# [2] = target: Na/K pump α1 subunit-CFP fusion; assay: FRET or BRET
substance,measurement,setting,value
"canine kidney Na,K-ATPase (αβ protomer), erythrosin-labelled (from UniProt P50997;P06583) (complex)",stoichiometry N,[1],2
phospholemman-citrineYFP fusion (natural protein),increase of donor fluorescence on acceptor photobleaching,[2],23.8%
